Here are results for three molecules from patent US20220306707A1 (INDUSTRY UNIVERSITY COOPERATION FOUNDATION HANYANG …, published 2022).

Changes are numbered by the printed parent chain. Names and notes keep the numbering of the source.

Test [1] deals with T1, Flag-NLRP3 wild-type (WT), full-length, transfected into 293T cells (UniProt Q96P20 1-1036).
T1 construct: also called wild-type (WT) NLRP3; not shown: Flag tag
The test can be described thus: GST pulldown in transfected 293T cells (FIG. 3A).

Test [2] deals with endogenous mouse NLRP3 (bone marrow-derived macrophages and splenocytes of C57BL/6 mice) (mouse, UniProt Q8R4B8 1-1033). As to the kind of experiment: immunoprecipitation from LPS- and ATP-treated BMDMs (FIG. 4D).
endogenous mouse NLRP3 (bone marrow-derived macrophages and splenocytes of C57BL/6 mice), sequence (Q8R4B8 whole entry): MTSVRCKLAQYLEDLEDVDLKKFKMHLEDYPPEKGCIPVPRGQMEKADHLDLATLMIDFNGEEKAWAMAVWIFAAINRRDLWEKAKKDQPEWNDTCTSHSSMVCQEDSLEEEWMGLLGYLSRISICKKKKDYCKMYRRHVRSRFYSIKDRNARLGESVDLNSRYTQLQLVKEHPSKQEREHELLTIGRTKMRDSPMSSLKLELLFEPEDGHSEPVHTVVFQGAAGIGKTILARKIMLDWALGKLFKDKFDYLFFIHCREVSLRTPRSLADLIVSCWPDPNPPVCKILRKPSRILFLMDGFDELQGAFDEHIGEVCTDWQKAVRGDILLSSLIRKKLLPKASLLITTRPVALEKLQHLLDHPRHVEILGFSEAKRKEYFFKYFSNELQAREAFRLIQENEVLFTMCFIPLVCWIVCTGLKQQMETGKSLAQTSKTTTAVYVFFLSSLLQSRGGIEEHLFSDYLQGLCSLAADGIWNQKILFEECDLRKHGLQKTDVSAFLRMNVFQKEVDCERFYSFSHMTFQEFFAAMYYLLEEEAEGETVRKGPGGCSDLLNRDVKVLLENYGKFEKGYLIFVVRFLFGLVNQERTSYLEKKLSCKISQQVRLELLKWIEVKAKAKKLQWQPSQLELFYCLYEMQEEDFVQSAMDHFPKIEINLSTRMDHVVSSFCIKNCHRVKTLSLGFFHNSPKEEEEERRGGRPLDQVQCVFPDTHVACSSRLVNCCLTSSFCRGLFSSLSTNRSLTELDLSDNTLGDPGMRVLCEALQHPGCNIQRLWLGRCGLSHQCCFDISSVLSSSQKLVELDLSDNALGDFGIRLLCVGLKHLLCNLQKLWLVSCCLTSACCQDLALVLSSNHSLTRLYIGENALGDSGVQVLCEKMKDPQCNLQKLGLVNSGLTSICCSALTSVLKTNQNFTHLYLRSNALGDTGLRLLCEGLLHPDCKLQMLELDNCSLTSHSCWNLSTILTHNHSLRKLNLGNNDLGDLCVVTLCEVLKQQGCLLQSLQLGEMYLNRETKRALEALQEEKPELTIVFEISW

T1 sequence (Q96P20 whole entry): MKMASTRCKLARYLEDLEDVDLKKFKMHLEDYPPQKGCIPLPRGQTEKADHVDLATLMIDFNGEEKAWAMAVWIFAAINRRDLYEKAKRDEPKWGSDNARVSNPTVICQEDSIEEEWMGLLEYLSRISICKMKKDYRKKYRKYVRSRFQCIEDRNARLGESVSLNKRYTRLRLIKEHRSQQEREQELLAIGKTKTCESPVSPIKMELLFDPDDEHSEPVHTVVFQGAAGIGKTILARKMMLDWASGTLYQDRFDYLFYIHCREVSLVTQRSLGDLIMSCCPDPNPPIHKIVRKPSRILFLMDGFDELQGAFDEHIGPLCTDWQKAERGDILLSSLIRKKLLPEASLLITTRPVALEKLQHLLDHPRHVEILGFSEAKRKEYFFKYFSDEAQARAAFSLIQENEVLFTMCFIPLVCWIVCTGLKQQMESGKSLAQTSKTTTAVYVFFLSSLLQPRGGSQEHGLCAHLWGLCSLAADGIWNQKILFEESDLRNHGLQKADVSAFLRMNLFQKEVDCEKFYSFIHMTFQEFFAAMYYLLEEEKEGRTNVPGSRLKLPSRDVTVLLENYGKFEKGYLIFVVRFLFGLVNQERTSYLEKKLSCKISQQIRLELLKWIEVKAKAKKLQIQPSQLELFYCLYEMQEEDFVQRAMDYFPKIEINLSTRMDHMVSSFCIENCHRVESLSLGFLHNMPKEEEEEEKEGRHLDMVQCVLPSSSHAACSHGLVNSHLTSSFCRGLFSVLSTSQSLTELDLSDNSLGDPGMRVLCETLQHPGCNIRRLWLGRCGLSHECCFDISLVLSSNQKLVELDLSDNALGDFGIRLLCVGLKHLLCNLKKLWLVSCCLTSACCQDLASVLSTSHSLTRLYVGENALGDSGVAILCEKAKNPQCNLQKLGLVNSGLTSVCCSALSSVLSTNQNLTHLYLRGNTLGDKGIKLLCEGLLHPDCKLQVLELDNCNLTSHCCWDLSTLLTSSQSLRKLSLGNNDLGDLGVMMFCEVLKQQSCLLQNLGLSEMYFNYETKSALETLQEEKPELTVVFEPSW

B1: GST-GRA9 C-terminal domain containing the Q200L mutation (other)
chain: MSVDPLCIMTREVVAQKLAGWTDNTHTATAGTPKKLLISFPSPDHIKEMVKEGYLPDNALERVLAGDFEGFSRTQMCLVSGRNRTECAFAEGQE
notes: also called GST-GRA9 C^Q200L; GST-GRA9 containing the Q200L mutation at the C-terminus
As to B1, the binding result in test [1] is on record as “no binding”.

B2: recombinant GRA9C (residues 195-288) with N-terminal 6x His tag, purified from E. coli (other)
chain: HHHHHHMSVDPQCIMTREVVAQKLAGWTDNTHTATAGTPKKLLISFPSPDHIKEMVKEGYLPDNALERVLAGDFEGFSRTQMCLVSGRNRTECAFAEGQE
notes: also called rGRA9C; 6xHis-GRA9C
For the molecule B2, the binding result in test [2] is recorded as “binds”.

B3: recombinant GRA9C^Q200L (residues 195-288, Q200L) with N-terminal 6x His tag, purified from E. coli (other)
chain: B2 chain with Q12L
notes: also called rGRA9C^Q200L
As for B3, the binding result in test [2] is “no binding”.
